Biological target: MBP-BmPSI (P-element somatic inhibitor) (Bombyx mori, UniProt A8R081 1-703)
Test: EMSA; RNA dissolved in protein purification buffer, 20 mM Tris, 20 mM NaCl; pH, temperature and EMSA binding details not given
Details: protein: recombinant; tags: N-terminal His6-MBP-TEV; label: biotin at 5' and 3' ends; single strand

Sequence of MBP-BmPSI (P-element somatic inhibitor) (A8R081 entry or part of it): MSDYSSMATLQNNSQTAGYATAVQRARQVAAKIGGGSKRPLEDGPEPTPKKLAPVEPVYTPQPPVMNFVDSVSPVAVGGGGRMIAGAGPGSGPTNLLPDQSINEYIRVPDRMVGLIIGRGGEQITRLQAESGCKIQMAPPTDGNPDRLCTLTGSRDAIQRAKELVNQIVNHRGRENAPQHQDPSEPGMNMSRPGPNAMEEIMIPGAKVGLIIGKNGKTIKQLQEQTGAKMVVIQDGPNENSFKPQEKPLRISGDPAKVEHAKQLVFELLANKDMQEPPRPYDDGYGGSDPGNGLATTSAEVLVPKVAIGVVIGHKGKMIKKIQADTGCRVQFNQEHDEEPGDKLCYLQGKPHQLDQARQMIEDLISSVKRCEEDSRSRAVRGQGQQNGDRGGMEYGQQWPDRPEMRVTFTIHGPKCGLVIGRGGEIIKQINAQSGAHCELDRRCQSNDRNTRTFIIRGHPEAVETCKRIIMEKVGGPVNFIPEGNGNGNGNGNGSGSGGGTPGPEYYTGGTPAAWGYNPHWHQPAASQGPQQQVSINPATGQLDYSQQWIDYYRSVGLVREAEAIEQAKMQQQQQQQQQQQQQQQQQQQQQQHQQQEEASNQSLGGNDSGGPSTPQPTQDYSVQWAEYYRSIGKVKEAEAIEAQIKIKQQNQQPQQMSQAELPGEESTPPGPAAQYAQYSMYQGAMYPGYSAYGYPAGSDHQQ

UUAAUAAUAUAAGUGGUGUA (ssRNA) [CE1 RNA probe]: binds.
